Square brackets hold non-standard residues; d marks the D form. Ends that are not written are not given here.
Key:
[1] = molecular target: T1, human MC1-receptor (melanocortin 1 receptor) (human, UniProt Q01726 1-317); experiment: competition with [^125I]NDP-MSH on COS cells expressing human MC1 receptor; Ki by Cheng-Prusoff
T1 construct: whole, on cells; Recombinant receptor on transfected cells
Description: (§1) Expression of receptor clones. Human MC1- and MC5-receptor DNAs (Chhajlani and Wikberg 1992; Chhajlani et al., 1993), cloned into the expression vector pRc/CMV (InVitrogen Corp., USA), and human MC3- and human MC4-receptor DNAs (Gantz et al., 1993a & b), cloned into the expression vector pCMV/neo, were used. COS cells were grown and transfected with receptor clones as described (Schiöbth et al. 1995, 1996b). After transfection cells were cultivated for 48 h, detached from the Petri dishes, and used for radioligand binding as described (Schiöth et al. 1995, 1996b).
(§2) Binding studies. […] The competition data were analyzed by fitting it to the logistic function using non-linear regression analysis. The Kᵢ-values were then calculated from the thus obtained IC50-values by using the Cheng and Prusoff equation, essentially as described by Schiöth et al. 1995, 1996b.

human MC3-receptor [2] = molecular target: T2, human MC3-receptor (human, UniProt P41968 1-323); experiment: competition with [^125I]NDP-MSH on COS cells expressing human MC3 receptor; Ki by Cheng-Prusoff
T2 construct: whole, on cells
T2 sequence (P41968 whole entry): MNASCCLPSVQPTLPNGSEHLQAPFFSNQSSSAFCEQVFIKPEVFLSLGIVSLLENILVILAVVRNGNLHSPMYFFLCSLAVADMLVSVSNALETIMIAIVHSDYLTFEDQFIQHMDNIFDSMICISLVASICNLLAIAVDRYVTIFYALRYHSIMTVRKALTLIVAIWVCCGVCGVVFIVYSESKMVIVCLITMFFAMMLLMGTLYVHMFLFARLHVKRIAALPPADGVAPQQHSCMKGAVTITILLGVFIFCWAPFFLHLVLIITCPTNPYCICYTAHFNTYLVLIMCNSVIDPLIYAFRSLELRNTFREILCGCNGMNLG
Description: as §1, §2

human MC4-receptor = molecular target: T3, human MC4-receptor (human, UniProt P32245 1-332); experiment: competition with [^125I]NDP-MSH on COS cells expressing human MC4 receptor; Ki by Cheng-Prusoff
T3 construct: whole, on cells
T3 sequence (P32245 whole entry): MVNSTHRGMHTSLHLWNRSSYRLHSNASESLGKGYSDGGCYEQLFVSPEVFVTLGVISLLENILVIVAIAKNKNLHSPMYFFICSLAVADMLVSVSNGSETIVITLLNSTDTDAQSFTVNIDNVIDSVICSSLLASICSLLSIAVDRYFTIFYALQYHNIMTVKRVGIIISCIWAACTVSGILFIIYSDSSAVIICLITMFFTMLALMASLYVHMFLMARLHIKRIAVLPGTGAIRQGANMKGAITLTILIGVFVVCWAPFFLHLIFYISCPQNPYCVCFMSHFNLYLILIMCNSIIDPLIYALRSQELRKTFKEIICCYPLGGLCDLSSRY
Description: as §1, §2

[3] = molecular target: T4, native mouse MC1-receptor (MSH-receptor of mouse B16 melanoma cells and of mouse RAW 264.7 cells) (mouse, UniProt Q01727 1-315); experiment: competition with 0.2 nM [^125I]NDP-MSH on mouse B16-F1 melanoma cells (native mouse MC1 receptor)
T4 construct: whole, on cells; also called B16 melanoma cell MSH-receptor
T4 sequence (Q01727 whole entry): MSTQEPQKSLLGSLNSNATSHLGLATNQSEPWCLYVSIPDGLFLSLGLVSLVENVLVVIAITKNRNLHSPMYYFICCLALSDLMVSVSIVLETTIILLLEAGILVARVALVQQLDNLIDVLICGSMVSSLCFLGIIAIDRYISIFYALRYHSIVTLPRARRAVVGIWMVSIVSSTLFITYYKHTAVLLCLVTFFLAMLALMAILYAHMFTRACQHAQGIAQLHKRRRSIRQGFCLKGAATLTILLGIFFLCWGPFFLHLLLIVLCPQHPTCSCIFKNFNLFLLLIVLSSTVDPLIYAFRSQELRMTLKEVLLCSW
Description: Assays for MSH-receptor binding was done essentially as described (Xia et al., Cancer Letters, 1996, 98, 157-162), in principle according to earlier described methods (Eberle et al., J. Recept. Res. 1991, 11, 311-322). In brief, collected cells were washed with binding buffer (for composition of binding buffer see below) distributed into 96 well plates and sedimented onto the well bottoms by centrifugation. […] After incubation the plates were put on ice, centrifuged and the cells washed with 0.1 ml of ice-cold binding buffer, centrifuged and the binding buffer was sucked off. The finally sedimented and washed cells were then detached from the plates with 0.2 ml of 0.1 N NaOH. Radioactivity was counted by using a Wallac, Wizard automatic gamma counter. The competition data were analysed by law of massaction computer modelling essentially as described (Bergstrom & Wikberg, Acta Pharmacol. Toxicol. 1986, 59, 270-278).

[4] = molecular target: T1, human MC1-receptor (melanocortin 1 …); experiment: cell-based or functional assay
human MC5-receptor = molecular target: T5, human MC5-receptor (human, UniProt P33032 1-325); experiment: competition with [^125I]NDP-MSH on COS cells expressing human MC5 receptor; Ki by Cheng-Prusoff
T5 construct: whole, on cells
T5 sequence (P33032 whole entry): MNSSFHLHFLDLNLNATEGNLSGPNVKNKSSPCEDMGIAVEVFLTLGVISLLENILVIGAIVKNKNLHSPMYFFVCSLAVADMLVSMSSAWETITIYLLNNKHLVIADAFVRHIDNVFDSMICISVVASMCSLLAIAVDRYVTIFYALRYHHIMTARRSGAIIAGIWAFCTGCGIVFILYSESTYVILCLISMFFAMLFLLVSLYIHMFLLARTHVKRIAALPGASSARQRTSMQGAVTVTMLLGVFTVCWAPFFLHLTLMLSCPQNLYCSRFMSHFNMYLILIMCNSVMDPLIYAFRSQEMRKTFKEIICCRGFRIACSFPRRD
Description: as §1, §2

human MC3-receptor [5] = molecular target: T2, human MC3-receptor; experiment: ratio of Ki values, competition with [^125I]NDP-MSH on COS-1 cells expressing human MC receptors
Description: as §1, §2

[6] = molecular target: T4, native mouse MC1-receptor (MSH-receptor …); experiment: competition with 0.1 nM [^125I]NDP-MSH on mouse RAW 264.7 macrophage cells (native mouse MC1 receptor)
Description: MSH-receptor binding was done essentially as described (Xia et al., Cancer Letters, 1996, 98, 157-162), in principle according to earlier described methods (Eberle et al., J. Recept Res. 1991, 11, 311-322). In brief, the collected cells were washed, distributed into 96 well plates and sedimented onto the well bottoms by centrifugation. […] Radioactivity was counted by using a Wallac, Wizard automatic gamma counter. The competition data were analysed by law of massaction computer modelling essentially as described (Bergstrom & Wikberg, Acta Pharmacol. Toxicol. 1986, 59, 270278).

T1 sequence (Q01726 whole entry): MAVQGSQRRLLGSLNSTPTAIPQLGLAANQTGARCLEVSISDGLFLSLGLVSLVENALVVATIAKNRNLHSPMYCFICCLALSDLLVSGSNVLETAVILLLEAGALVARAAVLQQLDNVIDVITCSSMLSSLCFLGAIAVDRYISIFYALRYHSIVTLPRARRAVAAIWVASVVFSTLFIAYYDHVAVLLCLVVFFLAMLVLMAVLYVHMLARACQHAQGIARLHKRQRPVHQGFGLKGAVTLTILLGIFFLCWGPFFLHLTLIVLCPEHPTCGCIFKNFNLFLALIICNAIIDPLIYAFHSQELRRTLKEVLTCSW

Binder | Ki [1] [nM] | Ki (human MC3-receptor [2]) [nM] | Ki (human MC4-receptor) [nM] | Ki [3] [nM] | % of 10 nM α-MSH (cAMP stimulation, 10 nM) [4] [%] | Fold stimulation of cAMP (10 nM) [4] [fold] | Fold stimulation of cAMP (1 µM) [4] [fold] | Ki (human MC5-receptor) [nM] | fold lower affinity than for the MC1-receptor (human MC3-receptor [5]) [fold] | Ki [6] [nM]
SSIISH[dF]RWGKPV-NH2 (N-terminus assumed; SMILES CC[C@H](C)[C@H](NC(=O)[C@H](CO)NC(=O)[C@@H](N)CO)C(=O)N[C@H](C(=O)N[C@@H](CO)C(=O)N[C@@H](Cc1c[nH]cn1)C(=O)N[C@H](Cc1ccccc1)C(=O)N[C@@H](CCCNC(=N)N)C(=O)N[C@@H](Cc1c[nH]c2ccccc12)C(=O)NCC(=O)N[C@@H](CCCCN)C(=O)N1CCC[C@H]1C(=O)N[C@H](C(N)=O)C(C)C)[C@@H](C)CC, Synthetic 13-residue peptide amide; also called MSO9) [MS09 (Ser-Ser-Ile-Ile-Ser-His-dPhe-Arg-Trp-Gly-Lys-Pro-Val-NH2)] | 0.2 | 7 | 40 | 0.06 | 89 | 5.5 | 7 | 120 | – | –
SSIISHFRWGKPV-NH2 (also: trifluoroacetate salt, Synthetic 13-residue peptide amide, obtained as the trifluoroacetate salt; also called MSO5; compound (3)) [MS05 (Ser-Ser-Ile-Ile-Ser-His-Phe-Arg-Trp-Gly-Lys-Pro-Val-NH2)] | 0.76 | 1360 | – | 1 | 69 | 4.6 | 6.7 | – | 1800 | 1.35

Source: patent US20070027086A1 (ACTION PHARMA A S, published 2007)
